{"source": "patent US20250136650A1", "about": "“COMPOSITIONS AND METHODS FOR DNA BINDING AND TRANSCRIPTIONAL REGULATION” (THE UNIVERSITY OF CHICAGO, priority 2021, published 2025)", "key": {"[1]": {"test_system": "T1, STR22 (XBP1-derived stapled bZIP dimer) (synthetic (human XBP1))", "T1 sequence 1": "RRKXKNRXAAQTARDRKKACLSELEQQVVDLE", "T1 sequence 2": "T1 sequence 1 with C20R, E25X", "test": "cell_activity", "conditions": "+/-3.5; inhibition of XBP1s-induced luciferase in HeLa, 24 h"}, "[2]": {"test_system": "FJSTR72 (Fos/Jun-derived stapled bZIP dimer) (synthetic (human c-Fos/c-Jun))", "test": "EMSA"}, "Ebox site": {"test_system": "Ebox site", "test": "EMSA, binding to Ebox site", "text": "(§1) bZIP transcriptional repressors FJSTR7 (shown in FIGS. 42 and 45), FJSTR71 (shown in FIGS. 52 and 53), and FJSTR72 (shown in FIGS. 52 and 54), were generated and tested."}, "MC38 tumors": {"test_system": "MC38 tumors", "test": "Subcutaneous MC38 tumor model", "format": "in vivo", "conditions": "MC38-bearing mouse, intratumoral"}, "cells": {"test_system": "cells", "test": "Fluorescent microscopy of cell penetration by FJSTRs", "format": "cell-based", "conditions": "FJSTR7 and FJSTR72 at 5 μM, FJSTR71 at 2 μM", "text": "as §1"}, "AP-1 site": {"target": "AP-1 site", "test": "EMSA, direct binding to AP-1 DNA probe", "text": "The DNA binding dimer STR22 (shown in FIG. 21 and FIG. 27) was synthesized. STR22 was subjected to EMSA to measure binding to either the UPR element (UPRE) or AP-1 binding site (AP-1).\nas §1\nElectrophoretic Mobility Shift Assays (EMSAs): For direct DNA binding experiments, STRs were serially diluted at 10× concentration in water and then 1 μL of STR solution was added to 9 μL of 5 nM IRD700-labeled DNA probe bearing either a UPRE or AP-1 motif in a final 1×binding buffer (20 mM HEPES pH 8.0, 150 mM NaCl, 5% glycerol, 1 mM EDTA, 2 mM MgCl2, 0.5 mg/mL BSA, 1 mM DTT, 0.05% NP-40). Samples were incubated for 1 hr at RT. 5 μL of each reaction was loaded on an 8% acrylamide, 0.5×TBE gel equilibrated to 4° C. Samples were resolved for 60 min at 110 V and 4° C. with 0.5×TBE+1 mM MgCl2 running buffer. Gels were pre-run at 110 V for 15 min prior to sample loading. For competition experiments, 30 or 60 nM STRs and 5 nM labeled UPRE probe were incubated with 0, 7.8, 13, 21.6, 36, 60 or 100 nM unlabeled competitor oligo for 1 hr at RT. […] ImageJ was used to quantify band intensity and the fraction of bound DNA was calculated by dividing the band intensity of bound DNA by the band intensity of free DNA from the vehicle treated lane. […]"}, "[3]": {"test_system": "T1, STR22 (XBP1-derived stapled bZIP dimer) (synthetic (human XBP1))", "test": "competition", "conditions": "EMSA competition with unlabeled UPRE against 5 nM labeled UPRE"}, "[4]": {"target": "T2, STR4 (XBP1-derived unstapled bZIP dimer, Met-to-Leu) (synthetic (human XBP1)) (UniProt P17861+P17861)", "T2 sequence 1": "T1 sequence 1 with X4L, X8V", "T2 sequence 2": "T1 sequence 1 with X4L, X8V, C20R, E25X", "test": "EMSA", "conditions": "20 mM HEPES pH 8.0, 150 mM NaCl, 2 mM MgCl2, RT 1 h"}, "[5]": {"test_system": "T1, STR22 (XBP1-derived stapled bZIP dimer) (synthetic (human XBP1))", "test": "EMSA", "conditions": "20 mM HEPES pH 8.0, 150 mM NaCl, 2 mM MgCl2, RT 1 h; 14.17 nM reported in Example 4 (FIG. 2)"}}, "note": "Changes are numbered by the printed parent chain. pIC50, pKd, pKi: −log10 of the molar value. “Also recorded” adds a separate entry of the source. *1 amine or outer side, *2 acyl side, *3 side chain or, on linkers, in order; H or OH if unused. Bridges are numbered along the chain shown (N, C = ends). Roman numbers before positions name the chains, in order. [ ]: non-standard residue; d: D form. X1 = O=C1CC([*:1])C(=O)N1CC(=O)[*:2]; S5 = C=CCCC[C@](C)(N)C(=O)O", "data": [{"substance": "3xUPRE luciferase reporter", "values": [{"measurement": "pIC50", "setting": "[1]", "value": 5.13}]}, {"substance": "AP-1 site probe (FJSTR)", "values": [{"measurement": "pKd", "setting": "[2]", "value": 7.92}]}, {"substance": "I: Ac-IRRERNKMAAAKSRNRRRECI[S5]ELQ[S5]EIEQLE-NH2 / II: Ac-RKRMRNRIAASKSRKRKLERI[S5]RLK[S5]KIKTLK-NH2 (linker I:20-II:25 via X1; staple (Z) I:22-I:26, II:22-II:26) [FJSTR72]", "values": [{"measurement": "binding to Ebox site", "setting": "Ebox site", "value": "does not bind to the Ebox site"}, {"measurement": "tumor growth", "setting": "MC38 tumors", "value": "reduces tumor growth"}, {"measurement": "penetration of cells", "setting": "cells", "value": "penetration; also recorded: capable of entering cells"}, {"measurement": "pKd", "setting": "AP-1 site", "value": 7.92}]}, {"substance": "TGACGTGG (double strand) [UPRE consensus competitor (unlabeled)]", "values": [{"measurement": "pKi", "setting": "[3]", "value": 7.54}]}, {"substance": "TGACGTGG (double strand) [UPRE consensus probe]", "values": [{"measurement": "pKd", "setting": "[4]", "value": 7.31}, {"measurement": "pKd", "setting": "[5]", "value": 7.96}]}]}
